Experimental data from the DeepSol protein solubility set.

Test: soluble on expression in E. coli; label from the status in PepcDB or PDB records

| Sequence | soluble on expression in E. coli |
| --- | --- |
| MGSDKIHHHHHHMKKETKHFRALLADNALYYIYSNISAPLSLQELAKEAGVSAHHFHRIFKEEQGQNLYETIKSIRLQKAANLLLSNHYSTISEVAQLCGYSSSASFIKAFKGRFHLTPREWRHGGHRQYAKEILSTSSAAMASQRSFLGLEPTIKKIPAFRAVYLRHKGYNKSIALSWQKLMAWGFEHQISSQARQIGIHHDNPSITPLAECRYIAALEVEEGFRAQGLLGVMEFPPTLCAVFEVQGRYGDVLGLIDYVYHEWLPQSGYEAKTIPAFALYQKNHFLDPLGNFQLDFCLPVGVV | not soluble |
| MSLERSLSVTILFQDVPVSVWEINKNTPQPDWVKNCFENNTMVWYDNRLKILVKAINPSPKRDVKLGLRDTMLGYYGGGFVMGNIGDYFDATNGRVLSKKKFYKQYVINEEGHHHHHH | not soluble |
| MLGSSSLSIRTTDDKSLFARTMDFTMEPDSKVIIVPRNYGIRLLEKENVVINNSYAFVGMGSTDITSPVLYDGVNEKGLMGAMLYYATFATYADEPKKGTRGINPVYVISQVLGNCVTVDDVIEKLTSYTLLNEANIILGFAPPLHYTFTDASGESIVIEPDKTGITIHRKTIGVMTNSPGYEWHQTNLRAYIGVTPNPPQDIMMGDLDLTPFGQGAGGLGLPGDFTPSARFLRVAYWKKYTEKAKNETEGVTNLFHILSSVNIPKGVVLTNEGKTDYTIYTSAMCAQSKNYYFKLYDNSRISAVSLMAENLNSQDLITFEWDRKQDIKQLNQVNVMS | soluble |
| MSLANYIKDIREKVGHMPLIMVGVGAAYIKEEKVLLQERADTGGWGLPGGYMEYGESIEQTLKREFKEDAGLEIIDYKFLKNFDREFFKYPNGDQTQVLTPFYLVTKVKEGKPQFDPHETSRVDFFDFNDLPEIHFASHKRILTYLQDILEGHHHHHH | not soluble |
| MRHDTRLSRVLHILIHMEKHEGAATSENIAAMLQTNPVVVRRTMAGLREHGYVSSEKGHGGGWVLAQPLTEITLLDIYRALGAPELFSIGLAGDNPNCVIEQAVNAALFDAMNEAENILLSRFGSITLSTLAEESIDRWSKLSNCPSAMEQL | not soluble |
| SLAGPKESRDLTLEQFQVNFLDQYTIKHAFINGVNIYRCYPGAPPNNVQMVMQRSHGTEVPGIMVNLEGQQPTVVPLDASIIGAKKLTPTTTRPLHNVRVLRVNAVMRFHPLCRARFVGPNDISFGIRSATSQSIQEHIQELTDLMKKTQQADEQAMGALYSRSSALVSKLKMSGATSNVAFLEVPQTETRWGNPWTWYRAYLPTPLGDGVETWMTPIGDSGYYITVDFNFTESERQKNTENYQRARQLMDSVLQSVVIQKR | soluble |
| MSLRAQGEVVLSIDGEPVKRSEFEYYFRKSSHRTPLSFLPSFINYKLKVRYAHDMGIDTLSVFRRQVDWYRGKLLRTYLADAEKEEQAARRLYLQGEQRLQANDWIKIAHISKYLSQNASRQEEMRVRQQMDSVYEALREGADFATLARRYSDDEACKNVGGVLPWMPVNKNMQEWIDKLESLERNKISAPFYSPMGIHIVKWIDRRQGVSFEEKREQLLNYLEKNGNCTWKELSAEQKEELEFRVQELQDGLLAAYLSQKYQSGDEAWNEDDLERFFKQHKSDYAWELPHYRGAVIHCKDRKTASAIKKQLKKKPVSQWKDILHTLTGDDASSKVRMEAGVFQIGTNRYIDKLVFKCGSFQPEPDLPYTFVMGKKLKKGPESYEDVREAVVKDYLTVYEDAWLKDLKRKYKVEINQEVLKTVNNNGSEGHHHHHH | not soluble |
| SLLGGPGIELFRRLVEEYEREHDVPMADIAAALAVQCRGGEAFLMAPDPPLSRRNRDQRRDRPQRPKRRPDLTTYRVAVGKRHKIGPGAIVGAIANEGGLHRSDFGQIRIGPDFSLVELPAKLPRATLKKLAQTRISGVLIDLRPYRPPDAARRHNGGKPRRKHVG | not soluble |
| MGHHHHHHSHMKPIATVGESYQYPPVNWAALLSPLMRLNFGEEIQQLCLEIMVTQAQSSQNAAALLGLWVTPPLIHSLSLNTKRYLLISAPLWIKHISDEQILGFVENLMVAVFKAASPLGSPELCPSALHGLSQAMKLPSPAHHLWSLLSEATGKIFDLLPNKIRRKDLELYISIAKCLLEMTDDDANRIAQVTKSNIEKAAFVKLYLVSQGRFPLVNLTDMLSVAVQHREKEVLAWMILHSLYQARIVSHANTGVLKRMEWLLELMGYMKCCLPVNILSQYGS | not soluble |
| MSSAPNDDCEIDKGTPSTASLFTTLMLSQPSSSTAVLQCTYCGSSCTSSQLQTCLFCGTVAYCSKEHQQLDWLTHKMICKSLQTSGMVPSNLMPQAAPAVMAPIPPTVSFDDPALTTSLLLSLQNNPILNQTISNFPPTFSITSKTEPEPSIPIQIPQRISSTSTVPFSSEGSAFKPYRNTHVFNSISSESMSSMCTSHEASLEHMSSASLAMFPTSSTAQSDISRLAQVLSLAGDSPASLALVTTSVPSTASTATIPPPATTTSSATSSGKSETITVGKEKIIQTDDPDIQIIETEGGSKPTVSRTRKRPTPSNSADPKINYKDHNKNVVYSTTLQEHQKHLQNRGLALSIHQAMVLRLRYIAEHVIRSLNEFGWAVVDNFLGSDHYKFTAKEIERLYERGLFSPGQLMEAKHKDEFHIKDIRSDHIYWYDGYDGRAKDAATVRLLISMIDSVIQHFKKRIDHDIGGRSRAMLAIYPGNGTRYVKHVDNPVKDGRCITTIYYCNENWDMATDGGTLRLYPETSMTPMDIDPRADRLVFFWSDRRNPHEVMPVFRHRFAITIWYMDKSERDKALAKGKESDAACASKKENDPTSSSLNSLIGSLLRPRKNPSTHDLSKLDLRLFPSTSSDPALVSAADEDRVDISADFQSTSSLAHPESTDSGVSLSTFNVAHNHMERTTSLQSISDHFRSERSHERRSSTSSDQDLDEGLPPPPSTNPEYYI | not soluble |
| MGSDKIHHHHHHMQLSKAAEMCYEITNSYLHIDQKSQIIASTQEAIRLTRKYLLSEIFVRWSPLNGEISFSYNGGKDCQVLLLLYLSCLWEYFFIKAQNSQFDFEFQSFPMQRLPTVFIDQEETFPTLENFVLETSERYCLSLYESQRQSGASVNMADAFRDFIKIYPETEAIVIGIRHTDPFGEALKPIQRTDSNWPDFMRLQPLLHWDLTNIWSFLLYSNEPICGLYGKGFTSIGGINNSLPNPHLRKDSNNPALHFEWEIIHAFGKDAEGERSSAINTSPISVVDKERFSKYHDNYYPGWYLVDDTLERAGRIKN | not soluble |
| MAHHHHHHMLQEYTGERCVSYRVNPQRGGCVETVAEVDAQDFFTEPGGLVTSPTTPSTPAGSTSARQARRRVVTTLERILLPDGYPSSVTEDLLPFALWDLAQVLAKNVTATLSTRAVLLGVGVGESKADLTSATLSWMMQDGTRMIGSVVFAPLIPQGLECRAKTWQLVADFTTDIANLLELCAPWLPGGQTTFRVVLVAASVVKALGSVCRNCTRASFTRHFALRNNAADIAAKASTRSSVGSFIGLVLGVAVAYIVPATSRSLNLVVFALGSVLHIFASYRSVRGVQLKHLNAPRLEWCLVQYSLFEAKVLIASKKDSGPLSVMPILDVSPRSANAAERLLILPSLRAVPPPSDSFYDSVRGFLCRYCFPPTLTLRIHCGASLFRLLQHQRGLTTRCKHELVQQVESALASRGIALLVDDVDMTYYVILPEYFTVEGVPAMWVRYKRQYGDDLTCMEAKQRQSAAARAAQRRQDGAASLSPSGAAVAAPDAGHGLDEAGRRAAQAEAELERLQKERVVVPPHILPLAYRQLWAYFYAFMHYRAVRLRREGPLTHAKDVLEGLHKNRSLECQRLHIITALRADGTLEAGHSDASDVPHSPAQFEEITSPASTTSDVPLERRVVPALATRAGGDDGDDGDNTAAPSYDGLHPQFIEFVRALRMTGWELDELLVGNEGYTTVVHYL | not soluble |
| MIGGLFVYNHKGEVLISRIYRDDVTRNAVDAFRVNVIHARQQVRSPVTNMARTSFFHVKRGNVWICAVTRQNVNAAMVFEFLKRFADTMQSYFGKLNEENVKNNFVLIYELLDEILDFGYPQNTDPGVLKTFITQQGVRTATKEEQSQITSQVTGQIGWRREGIKYRRNELFLDVIEYVNLLMNQQGQVLSAHVAGKVAMKSYLSGMPECKFGINDKITIEGKSKPGSDDPNKASRAAVAIDDCQFHQCVKLTKFETEHAISFIPPDGEYELMRYRTTKDIQLPFRVIPLVREVSRNKMEVKVVVKSNFKPSLLAQKLEVRIPTPPNTSGVQLICMKGKAKYKAGENAIVWKIKRMAGMKESQISAEIDLLSTGNVEKKKWNRPPVSMNFEVPFAPSGLKVRYLKVFEPKLNYSDHDVIKWVRYIGRSGLYETRC | not soluble |
| MHHHHHHAMDTYKLFIVIGDRVVVVTTEAVDAATAEKVFKQYANDNGVDGEWTYDDAAKTFTVTE | soluble |
